Our source for the intracellular cAMP levels in hOB-01-C1-PS-09 cells preincubated 48 hr values is patent US20040115195A1.

This assay deals with PTH-1 receptor (human) (UniProt Q03431). The assay can be described thus: cell-based or functional assay.
Sequence of UniProt Q03431 (Q03431 27-593): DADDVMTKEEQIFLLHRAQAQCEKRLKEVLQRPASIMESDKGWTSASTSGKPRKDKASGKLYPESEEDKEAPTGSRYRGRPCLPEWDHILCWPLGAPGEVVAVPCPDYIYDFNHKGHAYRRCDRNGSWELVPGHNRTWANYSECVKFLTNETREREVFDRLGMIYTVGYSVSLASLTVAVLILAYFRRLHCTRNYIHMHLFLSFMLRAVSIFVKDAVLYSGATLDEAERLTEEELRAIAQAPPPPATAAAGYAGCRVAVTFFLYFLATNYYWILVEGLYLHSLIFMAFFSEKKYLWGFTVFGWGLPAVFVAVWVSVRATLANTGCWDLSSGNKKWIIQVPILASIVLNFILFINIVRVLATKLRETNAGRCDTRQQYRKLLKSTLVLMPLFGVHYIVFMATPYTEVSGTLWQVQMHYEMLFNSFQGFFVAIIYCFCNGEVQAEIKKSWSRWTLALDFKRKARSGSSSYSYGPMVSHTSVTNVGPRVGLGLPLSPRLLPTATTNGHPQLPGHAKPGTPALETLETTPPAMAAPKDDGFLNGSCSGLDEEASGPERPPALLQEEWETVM

In the case of “human PTH 1-34 (from UniProt P01270 32-65) (peptide)”, the intracellular cAMP levels in hOB-01-C1-PS-09 cells preincubated 48 hr at 39 C, treated 10 min at 37 C fell in the range of 5 to 6 fold.
